According to article PMC10258763, “Atomic model for core modifying region of human fatty acid synthase in complex with Denifanstat” (Nature Communications, 2023):

Molecular target: the molecule itself
Assay: SEC + other: cryo-EM 2D class averages; truncated modifying region purified by Ni-NTA and Superdex 200 increase 10/300; 2D classes of elution fraction 3

B1: isolated modifying region of hFASN expressed and purified as an independent construct (G855 to G2511) (domain or fragment, human, UniProt P49327 855-2511, looked up)
chain: GSPSAAIYNIDTSSESPDHYLVDHTLDGRVLFPATGYLSIVWKTLARALGLGVEQLPVVFEDVVLHQATILPKTGTVSLEVRLLEASRAFEVSENGNLVVSGKVYQWDDPDPRLFDHPESPTPNPTEPLFLAQAEVYKELRLRGYDYGPHFQGILEASLEGDSGRLLWKDNWVSFMDTMLQMSILGSAKHGLYLPTRVTAIHIDPATHRQKLYTLQDKAQVADVVVSRWLRVTVAGGVHISGLHTESAPRRQQEQQVPILEKFCFTPHTEEGCLSERAALQEELQLCKGLVQALQTKVTQQGLKMVVPGLDGAQIPRDPSQQELPRLLSAACRLQLNGNLQLELAQVLAQERPKLPEDPLLSGLLDSPALKACLDTAVENMPSLKMKVVEVLAGHGHLYSRIPGLLSPHPLLQLSYTATDRHPQALEAAQAELQQHDVAQGQWDPADPAPSALGSADLLVCNCAVAALGDPASALSNMVAALREGGFLLLHTLLRGHPLGDIVAFLTSTEPQYGQGILSQDAWESLFSRVSLRLVGLKKSFYGSTLFLCRRPTPQDSPIFLPVDDTSFRWVESLKGILADEDSSRPVWLKAINCATSGVVGLVNCLRREPGGNRLRCVLLSNLSSTSHVPEVDPGSAELQKVLQGDLVMNVYRDGAWGAFRHFLLEEDKPEEPTAHAFVSTLTRGDLSSIRWVCSSLRHAQPTCPGAQLCTVYYASLNFRDIMLATGKLSPDAIPGKWTSQDSLLGMEFSGRDASGKRVMGLVPAKGLATSVLLSPDFLWDVPSNWTLEEAASVPVVYSTAYYALVVRGRVRPGETLLIHSGSGGVGQAAIAIALSLGCRVFTTVGSAEKRAYLQARFPQLDSTSFANSRDTSFEQHVLWHTGGKGVDLVLNSLAEEKLQASVRCLATHGRFLEIGKFDLSQNHPLGMAIFLKNVTFHGVLLDAFFNESSADWREVWALVQAGIRDGVVRPLKCTVFHGAQVEDAFRYMAQGKHIGKVVVQVLAEEPEAVLKGAKPKLMSAISKTFCPAHKSYIIAGGLGGFGLELAQWLIQRGVQKLVLTSRSGIRTGYQAKQVRRWRRQGVQVQVSTSNISSLEGARGLIAEAAQLGPVGGVFNLAVVLRDGLLENQTPEFFQDVCKPKYSGTLNLDRVTREACPELDYFVVFSSVSCGRGNAGQSNYGFANSAMERICEKRRHEGLPGLAVQWGAIGDVGILVETMSTNDTIVSGTLPQRMASCLEVLDLFLNQPHMVLSSFVLAEKAAAYRDRDSQRDLVEAVAHILGIRDLAAVNLDSSLADLGLDSLMSVEVRQTLERELNLVLSVREVRQLTLRKLQELSSKADEASELACPTPKEDGLAQQQTQLNLRSLLVNPEGPTLMRLNSVQSSERPLFLVHPIEGSTTVFHSLASRLSIPTYGLQCTRAAPLDSIHSLAAYYIDCIRQVQPEGPYRVAGYSYGACVAFEMCSQLQAQQSPAPTHNSLFLFDGSPTYVLAYTQSYRAKLTPGCEAEAETEAICFFVQQFTDMEHNRVLEALLPLKGLEERVAAAVDLIIKSHQGLDRQELSFAARSFYYKLRAAEQYTPKAKYHGNVMLLRAKTGGAYGEDLGADYNLSQVCDGKVSVHVIEGDHRTLLEGSGLESIISIIHSSLAEPRVSVREG
notes: human fatty acid synthase (FASN), residues G855 to G2511, modifying region (DH, ΨME, ΨKR, ER, KR, ACP, TE); also called truncated modifying region; truncated hFASN modifying region; source: HEK293F, transfected (pcDNA3.1, gene synthesized by GenScript), purified (Ni-NTA, Superdex 200)
- stoichiometry N: 2
